These are literature values, as cited in paper PMC6051640.

The target in the data set is retinol binding protein (Homo sapiens) (UniProt P02753).

As for Stra6 (from UniProt Q9BX79), the Kd was 59 nM.
